This is an account of results in patent publication US20220396632A1 (VERSEAU THERAPEUTICS, published 2022).

Changes are numbered by the printed parent chain.

Test [1] has as its target T1, Biotin PSGL-1(42-62) E45A peptide (C-terminal Lys-biotin).
T1 peptide: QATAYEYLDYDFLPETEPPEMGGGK
The test is described as follows: ELISA; against wild-type PSGL-1 42-62.

The target of another test is T2, Y48A (C-terminal Lys-biotin).
T2 construct: alanine-scan peptide; also called Biotin PSGL-1(42-62) Y48A peptide; 48Y
T2 peptide: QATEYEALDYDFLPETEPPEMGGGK
Nature of the test: alanine-scan ELISA, streptavidin-immobilized biotin peptide [cont.]. A general note: An ELISA detects its analyte on a solid surface through an enzyme-linked reagent.

Another test addresses T3, M62A (C-terminal Lys-biotin).
T3 construct: alanine-scan peptide; also called Biotin PSGL-1(42-62) M62A peptide; 62M
T3 peptide: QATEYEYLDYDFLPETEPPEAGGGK
Described as above.

Test [2] deals with T4, Biotin PSGL-1(42-62) E56A peptide (C-terminal Lys-biotin).
T4 peptide: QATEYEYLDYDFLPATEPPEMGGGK
The description is as above.

The target in the next test is T5, Q42A (C-terminal Lys-biotin).
T5 construct: alanine-scan peptide; also called Biotin PSGL-1(42-62) Q42A peptide; 42Q
T5 peptide: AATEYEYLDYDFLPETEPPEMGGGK
The test is described as above.

Test [3] addresses T6, Biotin PSGL-1(42-62) L49A peptide (C-terminal Lys-biotin).
T6 peptide: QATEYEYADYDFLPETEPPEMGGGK
Described as above.

The target in test [4] is T7, Biotin PSGL-1(42-62) D50A peptide (C-terminal Lys-biotin).
T7 peptide: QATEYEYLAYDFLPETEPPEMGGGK
The test is described as above.

In another test the target is T8, E47A (C-terminal Lys-biotin).
T8 construct: alanine-scan peptide; also called Biotin PSGL-1(42-62) E47A peptide; 47E
T8 peptide: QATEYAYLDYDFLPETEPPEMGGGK
The test is described as above.

In a further test the target is T9, T57A (C-terminal Lys-biotin).
T9 construct: alanine-scan peptide; also called Biotin PSGL-1(42-62) T57A peptide; 57T
T9 peptide: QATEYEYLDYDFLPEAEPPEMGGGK
Described as above.

Another test deals with T10, P59A (C-terminal Lys-biotin).
T10 construct: alanine-scan peptide; also called Biotin PSGL-1(42-62) P59A peptide; 59P
T10 peptide: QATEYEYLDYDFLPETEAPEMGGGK
The description is as above.

For test [5], the target named is T1, Biotin PSGL-1(42-62) E45A peptide. Described as above.
For test [6], the target named is T11, Biotin PSGL-1(42-62) Y46A peptide (C-terminal Lys-biotin).
T11 peptide: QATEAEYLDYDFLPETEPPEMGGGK
Described as above.

Another test deals with T12, T44A (C-terminal Lys-biotin).
T12 construct: alanine-scan peptide; also called Biotin PSGL-1(42-62) T44A peptide; 44T
T12 peptide: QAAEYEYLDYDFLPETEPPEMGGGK
Described as above.

The target of a further test is T13, P60A (C-terminal Lys-biotin).
T13 construct: alanine-scan peptide; also called Biotin PSGL-1(42-62) P60A peptide; 60P
T13 peptide: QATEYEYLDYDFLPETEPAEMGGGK
The test is described as above.

Another test deals with T14, E61A (C-terminal Lys-biotin).
T14 construct: alanine-scan peptide; also called Biotin PSGL-1(42-62) E61A peptide; 61E
T14 peptide: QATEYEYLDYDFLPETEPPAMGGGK
The description is as above.

The target of the next test is T15, E58A (C-terminal Lys-biotin).
T15 construct: alanine-scan peptide; also called Biotin PSGL-1(42-62) E58A peptide; 58E
T15 peptide: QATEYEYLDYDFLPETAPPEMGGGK
The test is described as above.

The target of test [7] is T16, Biotin PSGL-1(42-62) F53A peptide (C-terminal Lys-biotin).
T16 peptide: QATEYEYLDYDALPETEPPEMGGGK
The description is as above.

Test [8] addresses T17, Biotin PSGL-1(42-62) L54A peptide (C-terminal Lys-biotin).
T17 peptide: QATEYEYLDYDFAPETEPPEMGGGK
The test is described as follows: ELISA; against wild-type PSGL-1 42-62.

For test [9], the target named is T7, Biotin PSGL-1(42-62) D50A peptide. The test is described as follows: ELISA; against wild-type PSGL-1 42-62.
Test [10] addresses T18, Biotin Y46,48,51(SO3) PSGL-1(42-62) peptide (human, sulfotyrosine at Y46, Y48 and Y51; C-terminal Lys-biotin).
T18 construct: also called fully sulfated N-terminal PSGL-1 peptide
T18 peptide: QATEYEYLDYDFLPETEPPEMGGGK
Nature of the test: capture ELISA; against parent 18F02. As to the method:
A typical ELISA for N-terminal PSGL-1 reactive humanized mAbs binding to Y_{46,48,51}(SO₃) PSGL-1₍₄₂₋₆₂₎ involved coating high binding half-well plates (Corning Cat. #3690) with 3 ug/mL/25 ul per well of the mAbs or with an isotype hG4 control in PBS, pH 7.4, overnight at 4° C. […] Biotinylated Y_{46,48,51}(SO₃) PSGL-1₍₄₂₋₆₂₎ was added (25 ul per well) in duplicate at 2.8 uM in assay buffer (blocking buffer containing 0.05% tween 20) and serially diluted into test and control (just blocked) wells, and the plate incubated for 45 min at 37° C. The plate was washed ×3 and an appropriate HRP-conjugated streptavidin was added (25 ul per well; Jackson Immunoresearch, Cat. #016-030-084) and the plate was incubated for 45 min at 37° C. […] For each antibody, an EC50 value was determined from sigmoidal fitted peptide titration curve.

For test [11], the target named is T4, Biotin PSGL-1(42-62) E56A peptide. Nature of the test: ELISA; against wild-type PSGL-1 42-62.

B1: 16L15 (antibody, V domains shown)
VH: DVKLVESGGGLVKLGGSLKLSCAASGFTFSSYYMSWVRQTPEKRLEWVATISNGGGSTYYPDSVKDRFTISRDNAKNTLYLQMSSLNSEDTAVYYCAKPLYYSNPWFAYWGQGTLVTVSA
VL: DVLLTQTPLSLPVSLGDQASISCRSSQSIVHSNGNTYLEWYLQKPGQSPKLLIYKVSNRFSGVPDRFSGSGSGTDFTLKISRVEAEDLGVYYCFQGSHVPRTFGGGTKLEIK
notes: From mouse immunisation; only variable domains given
For B1, the EC50Ala/EC50 wt in test [1] was found to be 5.6 fold.

B2: 9F9 (antibody, V domains shown)
VH: EVQLVETGGGLVQPKGSLKLSCAASGFTFNTNAMNWVRQAPGKGLEWVARIRSKSNNYATYYADSVKDRFTISRDDTQSMIYLQMNNLKTEDTGMYYCVRGGSYWYFDVWGAGTTVTVSS
VL: B1 VL with L4M, H31N, R101W
notes: Control anti-PSGL-1 mAb, recombinant; only variable domains given; also called 9F6
B2: the binding result (in the test with Y48A; in the test with M62A; in test [2]; with Q42A; in test [3]; in test [4]) was “binds” throughout. The binding result (in the test with E47A; with T57A; with P59A; in test [5]; in test [6]; with T44A) was “binds” in each case. Moreover, the binding result (in the test with P60A; with E61A; with E58A; in test [7]) was “binds” in each case. In test [8], the EC50Ala/EC50 wt was 14.4 fold.

B3: 18F02 (antibody, V domains shown)
VH: QVQLQQPGAELVKPGASVKLSCKASGYTFTSYWMHWVKQRPGQGLEWIGMIHPNSGRTNYNEKFKSKATLTVDKSSSTAYMQLSSLTSEDSAVYYCARSDYWGQGTTLTVSS
VL: DIVMTQAAFSNPVTLGTSASISCRSSKSLLHSDGITYLYWFLQRPGQSPQLLIYRMSNLASGVPDRFSGSGSGTDFTLRISRVEAEDVGVYYCAQMLEFPRTFGGGTKLEIK
notes: as for B1
Regarding B3, the EC50Ala/EC50 wt in test [9] was found to be 35.6 fold. Also, in test [10], the “N-term peptide EC50 (normalized)” value is 1 fold.

B4: 43B6 (antibody, V domains shown)
VH: EVQLQQSGPDLVKPGALVKISCKASGYSFTAYYIHWVKQSHGKSLEWIGRVNPNTGGTSYNPKFKGKAILNVDKSSSTAYMELRSLTSEDSAVYYCARSGSPYYRYDDWGQGTTLTVSS
VL: ENVLTQSPAIMSASPGEKVTMTCRASSTVNSTYLHWFQQKSGASPKLWIYGSSNLASGVPARFSGSGSGTSYSLTISSVEAEDAATYYCQQYSGYPLTFGAGTTLELK
notes: Control anti-PSGL-1 mAb, recombinant; only variable domains given; also called 43B3
Take B4: the EC50Ala/EC50 wt in [11] was found to be 22.3 fold.
